In patent US20090148861A1 (SALK INSTITUTE, published 2009):
Blank lines part the entries; values can stand above or below the molecule they belong to.

Columns and labels:
[1] = target: GIRK2 L257Y mutant channel; assay: cell-based or functional assay
[2] = target: GIRK2 Y349W mutant channel; assay: cell-based or functional assay
[3] = target: GIRK4* L252W mutant channel; assay: cell-based or functional assay
[4] = target: GIRK2 L257A mutant channel; assay: cell-based or functional assay
[5] = target: GIRK4* L252A mutant channel; assay: cell-based or functional assay
[6] = target: GIRK2 L257W mutant channel; assay: cell-based or functional assay
[7] = target: GIRK4* L252Y mutant channel; assay: cell-based or functional assay
[8] = target: GIRK4 S143T mutant channel; assay: cell-based or functional assay
[9] = target: GIRK2c channel, wild type; assay: cell-based or functional assay
[10] = target: the molecule itself; assay: S200 Sepharose size chromatography; self-association of the cytoplasmic domains into a tetramer
Protocol: (§1) Kir2.1 mutants were grown in Terrific Broth at 37 degrees C. to the OD600 of 0.6, then induced with 0.5 mM IPTG for 3 hours prior to harvesting. Cells were lysed in 0.5M NaCl, 20 mM Tris-HCl pH 8.5, 10% glycerol, 7 mM beta-mercaptoethanol, 0.1 mM PMSF, 10 mM imidazole and 0.5 mg lysozyme per 100 ml of lysate. The lysate was sonicated and spun at 94,000 G for 45 minutes. The supernatant was loaded on a 2 ml-packed nickel affinity column (Qiagen), washed with 5 ml of lysis buffer without PMSF, and then eluted with lysis buffer with 250 mM imidazole. Thrombin was added to the eluted fraction and it was dialyzed against the sizing column buffer, 150 mM NaCl, 5 mM Tris-HCl pH 8.5, 2 mM DTT. Kir2.1 was then purified by S200 Sepharose chromatography and concentrated to 10 mg/ml with 10 mM DTT. Kir2.1 proteins were loaded on a G4000PWXL HPLC column (TOSOH) equilibrated in 150 mM NaCl, 5 mM Tris-HCl 8.5, 2 mM DTT. Molecular weight (MW) of the tetramer complex was calculated by Minidawn static light scattering requiring the use of the extinction coefficient of the monomer. The extinction coefficient was derived from the primary sequence of the protein. […]

[11] = target: the molecule itself; assay: sizing column; self-association into a tetramer
Protocol: Kir2.1 mutants were grown in Terrific Broth at 37 degrees C. to the OD600 of 0.6, then induced with 0.5 mM IPTG for 3 hours prior to harvesting. Cells were lysed in 0.5M NaCl, 20 mM Tris-HCl pH 8.5, 10% glycerol, 7 mM beta-mercaptoethanol, 0.1 mM PMSF, 10 mM imidazole and 0.5 mg lysozyme per 100 ml of lysate. The lysate was sonicated and spun at 94,000 G for 45 minutes. The supernatant was loaded on a 2 ml-packed nickel affinity column (Qiagen), washed with 5 ml of lysis buffer without PMSF, and then eluted with lysis buffer with 250 mM imidazole. Thrombin was added to the eluted fraction and it was dialyzed against the sizing column buffer, 150 mM NaCl, 5 mM Tris-HCl pH 8.5, 2 mM DTT. Kir2.1 was then purified by S200 Sepharose chromatography and concentrated to 10 mg/ml with 10 mM DTT. Kir2.1 proteins were loaded on a G4000PWXL HPLC column (TOSOH) equilibrated in 150 mM NaCl, 5 mM Tris-HCl 8.5, 2 mM DTT. Molecular weight (MW) of the tetramer complex was calculated by Minidawn static light scattering requiring the use of the extinction coefficient of the monomer. The extinction coefficient was derived from the primary sequence of the protein.
To understand the nature of the mildly-aggregating R218Q, it was reasoned that changing the Thr309 to a positive charge residue would restore a polar interaction similar to the native one present in Kir2.1 between Arg218 and Thr309 (FIG. 2C). […]

[12] = target: the molecule itself; assay: size chromatography of the cytoplasmic domains; homotetramer
Protocol: as §1

[13] = target: the molecule itself; assay: X-ray crystal structure at 2.0 A; homotetramer

percent change from basal current on Carbachol, whole-cell patch clamp [1]: 38% | percent change from basal current on Carbachol, whole-cell patch clamp [2]: 56% | Carb activation as percent of basal current, whole-cell patch clamp [3]: 23% | percent change from basal current on Carbachol, whole-cell patch clamp [4]: 36% | Carb activation as percent of basal current, whole-cell patch clamp [5]: 51% | percent change from basal current on Carbachol, whole-cell patch clamp [6]: 12% | Carb activation as percent of basal current, whole-cell patch clamp [7]: 110% | Carb activation as percent of basal current, whole-cell patch clamp (% of basal current) [8]: 231 | percent change from Ba++ sensitive basal current on 5 uM Carbachol (M2R co-transfected), whole-cell patch clamp [9]: 928%
Molecule: G-protein beta-gamma subunits

B1: Kir2.1L-E303K (other, mouse, UniProt P35561 44-64, looked up)
chain: RSRFVKKDGHCNVQFINVGEKRNETLVFSHNAVIAMRDGKLCLMWRVGNLRKSHLVEAHVRAQLLKSRITSEGEYIPLDQIDINVGFDSGIDRIFLVSPITIVHEIDEDSPLYDLSKQDIDNADFEIVVILEGMVKATAMTTQCRSSYLANEILWGHRYEPVLFEEKHYYKVDYSRFHKTYEVPNTPLCSARDLAEKKYILSNANSFCYENEVALTSKEEEEDSENGVPESTSTDSPPGIDLHNQASVPLEPRPLRRESEI
notes: range 44-64;range 189-428; Same construct as Kir2.1L; also called E303KL
binding result [10]: binds

B2: Kir2.1L-R218Q/T309K (other, mouse, UniProt P35561 44-64, looked up)
chain: RSRFVKKDGHCNVQFINVGEKRNETLVFSHNAVIAMRDGKLCLMWRVGNLQKSHLVEAHVRAQLLKSRITSEGEYIPLDQIDINVGFDSGIDRIFLVSPITIVHEIDEDSPLYDLSKQDIDNADFEIVVILEGMVEATAMTKQCRSSYLANEILWGHRYEPVLFEEKHYYKVDYSRFHKTYEVPNTPLCSARDLAEKKYILSNANSFCYENEVALTSKEEEEDSENGVPESTSTDSPPGIDLHNQASVPLEPRPLRRESEI
notes: range 44-64;range 189-428; Same construct as Kir2.1L; also called R218Q/T309KL
binding result [11]: binds

B3: Kir2.1L-G300V (other, mouse, UniProt P35561 44-64, looked up)
chain: RSRFVKKDGHCNVQFINVGEKRNETLVFSHNAVIAMRDGKLCLMWRVGNLRKSHLVEAHVRAQLLKSRITSEGEYIPLDQIDINVGFDSGIDRIFLVSPITIVHEIDEDSPLYDLSKQDIDNADFEIVVILEVMVEATAMTTQCRSSYLANEILWGHRYEPVLFEEKHYYKVDYSRFHKTYEVPNTPLCSARDLAEKKYILSNANSFCYENEVALTSKEEEEDSENGVPESTSTDSPPGIDLHNQASVPLEPRPLRRESEI
notes: range 44-64;range 189-428; Same construct as Kir2.1L; also called G300VL
binding result [12]: binds

B4: Kir2.1L-R218Q/T309R (other, mouse, UniProt P35561 44-64, looked up)
chain: RSRFVKKDGHCNVQFINVGEKRNETLVFSHNAVIAMRDGKLCLMWRVGNLQKSHLVEAHVRAQLLKSRITSEGEYIPLDQIDINVGFDSGIDRIFLVSPITIVHEIDEDSPLYDLSKQDIDNADFEIVVILEGMVEATAMTRQCRSSYLANEILWGHRYEPVLFEEKHYYKVDYSRFHKTYEVPNTPLCSARDLAEKKYILSNANSFCYENEVALTSKEEEEDSENGVPESTSTDSPPGIDLHNQASVPLEPRPLRRESEI
notes: range 44-64;range 189-428; Same construct as Kir2.1L; also called R218Q/T309RL
binding result [11]: binds

B5: Kir2.1S-R218Q/T309K, N-terminal (44-64) fused to C-terminal (189-371) of mouse Kir2.1 (other, UniProt P35561 44-64, looked up)
chain: RSRFVKKDGHCNVQFINVGEKRNETLVFSHNAVIAMRDGKLCLMWRVGNLQKSHLVEAHVRAQLLKSRITSEGEYIPLDQIDINVGFDSGIDRIFLVSPITIVHEIDEDSPLYDLSKQDIDNADFEIVVILEGMVEATAMTKQCRSSYLANEILWGHRYEPVLFEEKHYYKVDYSRFHKTYEVPNTPLCSARDLAEKKYILSNA
notes: range 44-64;range 189-371; Crystallised form (2.0 A, space group C2, one tetramer per asymmetric unit); also called R218Q/T309KS; R218Q/T309Ks
binding result [13]: binds
